Results on 17 sequences are retold here after the DeepSol protein solubility set.

A short description of this data set: soluble on expression in E. coli; label from the status in PepcDB or PDB records.
On to “MGSDKIHHHHHHMRILYINHYAGSPRHGMEFRPYYLAREWVKAGHEVNMLAADVSHLRQTHPQVDGKYRDEDIDGIRYTWCKTRPYSGNGVGRVLNIFSFLAKVMGLSRRYLKEWQPDVVIASSTYPLDTVPAAWIAGKTGARLVYEVHDLWPLTPVEVGGMSPKHPFIRLLQWAEDFGYKRADTVVSMLPCARDYMMAHGMAAEKYAVIPNGVDVSEWQGETLPLSAEHRMRLAELKSHGRFIVGYAGGHGLANALDYLLEAAALMRDAPVTFVLVGDGPDKQALVSRAAELKLDNVMFLPSIAKRSVPAFLAECDALYIGWRKLPIYRFGINPNKLFDYMMAGKPVIHSVEAGNDMVKDAGAGLSIGVEDPAVIADAVKRMAVLPLAERETMGAAGKAYVLANHDYAVLARRFLAAVKL”, for which the “soluble on expression in E. coli” value was “not soluble”.
For “MGSDKIHHHHHHMRIPPLKAIIAFESVARTKSVNRAAEELGLTASAVSHQLSNLESQIGQPLFQRSGRGLVLTPTGERYLTDVTGSLADLSRATERASSRTEVDILRVHSSPSFGLMWLLPRLSSFQEANGDIELNLACSYENVSFSNGFYDIDVRHGYGNWDNLEVRTVRGEFIAPLASPQYLERHPVKAPEDLLAHRLIYSETPLVQWKQWFGRAGVSLAAQKTFDFSFDRSYMSLETAALGLGIALESLMLASVKIREGLLVPVFDATHAVEVGAHHLVYPRQNAELPRVKRFLAWIEREVAGHGRAS”, the “soluble on expression in E. coli” value is on record as “not soluble”.
Take “MGSDKIHHHHHHMRLDEYISRDIAWCPGCGNFGIRTALMKALEELNVDPRQVVIVSGIGQAAKMPQYVGVNMFNGLHGRALPVATAIKTTNPNLLVIAESGDGCMYGEGGNHFIHTIRRNPDIVNIVHDNQVYGLTKGQASPTSLKGFKTPVQVDGVILEPFNPLAVAIALDASFVARTFIGDIEFTKDILKEAMKHKGYALVDILQPCVTFNKLNTYEWYRENTYYLKDHDPTDRELAFKRAIETEKLPLGIFYVNKNKETFEELARKGDRTPLYEYEVNFEKLKELIESKKS”: the “soluble on expression in E. coli” value is “not soluble”.
With “MGSDKIHHHHHHMRLDTLSKTGGGVQEALSGSVRLYSEVLNREVEVPETPRRIVSLSPAITETLYMLGLEDRIAGVSVYDHKPPKAREKPKVGSYYKVNMKLLEQLNPDLILVTTGAQRRILEDLSRRYPVYPIPLPVSVSGIIDQAVQVGIVTGALEEASRLETELLDKASKLRGAGRGLRIYYEVYLGGPVTAGAHTYISDAFRIAGVETPFMSERTTWIYQPPPERINRFKPQFILYEYSAYAPTTAEKVRGELEARGVDVGSAELVLLEPDTLAHYGPSFIDTMLDLLKTLRDKAGLG”, the “soluble on expression in E. coli” value was “not soluble”.
As to “MGSDKIHHHHHHMRLFRKEPKAEQLKVIIIGAGEVGYHIAHRLTRENKQVVVVDQQPEALRRVAEALDVQTIRGSGSSPVVLHDAGAEDADIILAVTDSDEINIIACLFANIISPASTKLARIRNEEYTLYRDALAQDILNISMIINPEVEVVKNIDRLLSLPGAVDYSEFADGRIRMVGMRICSGPLVGVRLMNFRTVISDGDVIIAAIVRNDELIIPTGMDEIRADDVVYFVCTESSLESVRNVVAALEDPIRSALIVGGGNIGMRLATLFERKGYHTKLVDRDEERCAVLAEKLNSTIVLHGDGTDQDLLREENAGTMDAVVCLTSDEETNILCSLLAKNMGVRKTVARINKVAYQPLVRAIGIEHSVSPRLSAVNSILHYIRKGKVLSSVAIRGEEAEVMEALAEAQSDIVGRPIHKLSFPKGALVLALVRGTEVVIPSGDTVIEPQDRILILSTRQAVSDVEQALMVKLKAY”, the “soluble on expression in E. coli” value is listed as “not soluble”.
The value for “MGSDKIHHHHHHMRLFSKLFNIRDNTVVERPRSLTGEGIAAKTQTRVAEKISSTPNDTDTVAAPTVDVAALFYSLLFATSHKDTGGIANNLEKRLIGNVESALADPKVIAEKVFKLPHDLIELDKQLANPEVDTEEVIALIKRDPVLSAEVIQLCNAPAFHRGAKDITSLQQAVVILGREQLRRFVSAVKVREVVEIKPIYYRRFGAEVWRHSLQVAYLAAELATEDQDTAFMLGLIHDVGKIAIFQMLLEAFAKAEPGEQPRSWLFRQVMTSKSLILSAVLARSWLLPPLFSRSLAALANPDNMPTEPLPKAIWTANHISECSMLWQAARLKEPQLNELLARIGMDRKTFDPLHEKLILFTR” was “not soluble”.
In the case of “MGSDKIHHHHHHMRLRELELFLDLLATKSLTQSAERLGMSQPNASHLLSKLEEKGGSKLFDRSGKRLLPLSSALFLEPRAKEIVRLWREAQEELLDQSSLCGELRIAATHTIGEYLLPEILFEFRQTHPKVHLQARIHNTAECLEALLGGEVEQAFIEGETEDNQGVMKRFLRRDELAVVTSDEGLAARARYIDELFDRPWILREKGSGMRDAFLREVVDVKESFPLFLELDRSEAIKRLIQSHGALGCLSLLSVQREIKEGRLFRVEIIGREFWRHFYEVRREGSLGRLAKVFGEFVSVRLSESD” it was “not soluble”.
The value for “MGSDKIHHHHHHMRLRRLPVYVDAYKEKPNAEIFIYYSSRGTGKTYDIATVNLERKFSADGGDTLAIRKKKNKTTQSIHKEILELLSIYNLRKFFNISKAKIESKSLIFGKKRAFVFEGGHDTRDLKSYAHFKDLWLEEANQFSADDIEMLVPTMREQGGRIYMSSNPVPKSHWLYKRYLSNQDNPAVCIIKSTYRDNPFLNGGDVQAWLEKQRLAYHGNDIGFRIEVLGEEFDFGTARLIKKFNVCGPEILSRANGSYYTGIHVKGNRICFLEILVGRISYLPVVIITNACSKVLLSKTDYQSEINKFKGVFVLPTAREELKYVFSRFGRGTLLAKKRNLYSLSDYLIPSNLNVVNKPETTDVISEFNETEYYYDESSAEDSEVTNFVMQKDLVYIPAFLNAISVFS” was “not soluble”; that for “MGSDKIHHHHHHMRLTSREKEIFEVLKKEPLISQEELARRFNITRSSIAVHISNLMKKGVILGKGYVFNEQVSVVVIGESYYYIKTSGPDNDCSINMGLGGFAVDTGRIFANFGLNVKLITIVGNDEEGTNIFNELQGKGVDIVNIFRHAKKRSCRKVFLDDKRILEENFSLQDYEKAIDAREWVVFNCEWLVVDTRFQELLCHKAIGKDEEKLPFFCTCRYLYSIEEIPSFLSRYDLLVLGVADSNIMDHYLSQALALSSNGVQSVILSDGNTRLFYFQKGNAHEFPLLPNQCFDSQEGLPALLAGIVYGLSSGYSLRQAVRIAVGTAASND” was “not soluble”.
Take “MGSDKIHHHHHHMRLVQYRMPDGSRRVGRVSDDDNHLHPLDKTGSVLELAEAAIAEDMSIASLVEKRTAAATIDYDALLRNGRVLAPVDHPEPARFLVTGTGLTHTGSAAARNQMHVLTHGDGAEESDSLKIFRMGLEGGKPGAGKIGIQPEWFFKGVGTCVVPPGAPLPMPAFAKAGAEEAEIVGLYLNGPDGHPYRIGYALGNEYSDHVTEGENYLYLAHSKLRSCSIGPELLIGDLPEEVRGHSRILRDGTVIWEQEFLSGEAHMSHSIANLEHFHFRYPMHRRAGDLHAYFFGAAVMSYASGIKTASGDEYEIQAQAFGKPLRNRMVSVPDEGLVTVTPL”: the “soluble on expression in E. coli” value was “not soluble”.
Consider “MGSDKIHHHHHHMRLYTRTGDKGKTSVIGGRLAKDDTRVVAYGTTDELNSFVGSAITQLDENTFADIRGELFKIQHELFDCGGDLAMLKVKEDRPYKAKQEIVDFLEQRIDAYIKEAPELERFILPGGSEAAASLHVCRTIARRAERYVVRLQQEGEINPIVLKYLNRLSDYFFAVARVVNSRLQVPDVEYERSAIVFREGKRKEDKK”, for which the “soluble on expression in E. coli” value is on record as “soluble”.
On to “MGSDKIHHHHHHMRNILEIVKFWFYDYDVTATEIKANVIKIHCNNKSYILKEKGSIKQLLVEINVLEQLEEKGVKAQKLVKTSNSEKYVVYKERYYCLYEYVVGSVLEIKDPENLKNLGSLIGEEIAKLHQALNSVNSNNELVKRELYKLVYEWALPNLEKNEHVDQDVVRTMNQIHSDFKKTITSLRKQIIHRDMHLSNVIFKDNEFQGFIDFELLERNVRVFDLCYCCTSILSELHSDEELRGKWQHIISKIFEGYNKQSILTREELQAIWYVMLSIQVIFITYFVQLPDLLKLNEEMFFWIFANKETIEELIERSVQI”, for which the “soluble on expression in E. coli” value is “not soluble”.
The value for “MGSDKIHHHHHHMRNYQIPNLFNLGDLETKKVLKAANQAHQALGELKGVVQTVPNQNILLGTLPLQEAKESSEIENIITTQDDLYQSNVATQQFTTIAAKEVHHYAQAVSFGFSEVRKTELITLNLIKQIQAKLEGNNAGFRKQIGTGLVNQRTGQVVYMPPQQPEMIEHYMSVLERFINDSEQIDYDPLVKMAIVHHQFESIHPFYDGNGRTGRIINILYLIQQNLLDTPILYLSRYINRNKDQYYYLLQFVRDHNDWEEWLIFMLNGIAETAKQTVDLINQIKKLMQEHKLLIRNQLPNIYSHELINNLYKYPYTKIDFIAEDCQVHRNTAGKRLEQLVDLGILKKVKIGKENFYINMELYYLLTK” was “not soluble”; that for “MGSDKIHHHHHHMRPDMFIGSYERSGGHGLYPAWLDSLGAISLGPPDTRIGNASFGLLDHRCGTAWFVEEQEPGAVSAWQWDDQVWTPLGRIGTGGASPCHLVRSPDGTLLAVANNDGGVAALVELDPETGALGKLAGVLRNEGGARSHAGCVRFAGDRIFIADRGLDRVLSCEYGAAGFGEVRTAFAAPRGSGPRQLLLRDDLALLACELTARLMLLRATGEGFELLDDIATDAAATPGNLAGHLAFQGDRIFVSNRGADTVASFRIDGERLRREDCWSSHGRSPRHFAMCGSYLVVTNEQDGIVCVLDIANGGRIAGTAIVPGAAFVLAMPL” was “not soluble”; that for “MGSDKIHHHHHHMRQLSINRLKEGDILGRTIYANDGRVLLGKGMALTKSYIDRLKTLGINILYIDDEVSKDIIVEDIISEEHRREAMASLDNAVQAVKVGKDFDGFNVKRNIDNIIQDILFQKDIFIGLTDMRTYDNQIFAHSVNVCVLSIVLGKALGLDRENLEGLAIGALFHDIGTVKLPKKLLSKREPFTPKEAALYQTHTNHGFDILRTKRELNLLSAHIAFQHHERLNGNGYPRKLEGDAIHQWAQIVGIANFYDNLVNDGPGHTRIPPYEACEILMGSAEKFFPKDLVITFLKHIAAYPTGCTVKLSTGETGIVVEQNKSLPMRPIIRVLVADQTLSRVQAKEYNLVEERTLFIESILE” was “not soluble”.
The value for “MGSDKIHHHHHHMRRKIPSTTALVSFEAAARHESFTKAAHELSLTQGAVCRQIGGLEEFLGIELFRRSRRGVKLTEAGLSYSRRVAQQLDAVERDTLSVMGEQGAHAIELAVVPTFGTQWLLPRLKDFQHKHPDVTVHLTNRTRPFLFADTDFDAAIYFGDADWSGTQSHRLMGENSLPVCSPSFLGGRGSLKASELAELPLLQQTTRPYAWRQWFNAQNLNVARDMTGPRYELFSMLAQAAMHDMGVALIPPFLILRELHEKRLVIASISALPSNKAYHLMIPERKVESASLTAFRDWLVNQAHDYSLPQDKEQALV” was “not soluble”.
“MGSDKIHHHHHHMRRNQVAIVGAAETTKLGVIPDMSQIQLHADAALNAIADAGLKLSDIDGIATAVETPQQIAHYLGITPTWVDGTSVGGCSFMLHVRHAAAAIEAGLCKTVLITHAESGKSMIGKLPRSIPADSLQGQFEAPYGIYGPPSQFPIPVLRFMKTHGITHEQIASVAVVQREWAAKNPRAMMKDPITVADVLNSRMIAYPFRLLQCCLVTDGGGALIMTSADRAKDFPHKPVYVLGTGESVETPMVSQMETFNSSRAFKVAGPTAFREAGISHSDVDHLMIYDAFAHLPLFGLGDLGFMPYEETGKFIADGNTRPGGKLPLNTNGGGLSYMHSGMYGMYALQESVRQMRGIAPAQVPNAKISVCHGVGGMFAASGTIIFTNEK”: the “soluble on expression in E. coli” value is “not soluble”.
